B1: gp15 C-terminal truncation mutant (residues 1-261) (domain or fragment, bacteriophage T4, UniProt P11112 1-261, looked up)
chain: MFGYFYNSSFRRYATLMGDLFSNIQIKRQLESGDKFIRVPITYASKEHFMMKLNKWTSINSQEDVAKVETILPRINLHLVDFSYNAPFKTNILNQNLLQKGATSVVSQYNPSPIKMIYELSIFTRYEDDMFQIVEQILPYFQPHFNTTMYEQFGNDIPFKRDIKIVLMSAAIDEAIDGDNLSRRRIEWSLTFEVNGWMYPPVDDAEGLIRTTYTDFHANTRDLPDGEGVFESVDSEVVPRDIDPEDWDGTVKQTFTSNVNR
B2: bacteriophage T4 gp14, purified (natural protein)
chain: MATYDKNLFAKLENRTGYSQTNETEILNPYVNFNHYKNSQILADVLVAESIQMRGVECYYVPREYVSPDLIFGEDLKNKFTKAWKFAAYLNSFEGYEGAKSFFSNFGMQVQDEVTLSINPNLFKHQVNGKEPKEGDLIYFPMDNSLFEINWVEPYDPFYQLGQNAIRKITAGKFIYSGEEINPVLQKNEGINIPEFSELELNAVRNLNGIHDINIDQYAEVDQINSEAKEYVEPYVVVNNRGKSFESSPFDNDFMD

Columns and labels:
[1] = molecular target: the molecule itself; assay: crystal structure
[2] = molecular target: purified phage T4 heads (bacteriophage T4) (UniProt P13334); assay: co-sedimentation
purified phage T4 heads (bacteriophage T4), sequence (P13334 whole entry, looked up): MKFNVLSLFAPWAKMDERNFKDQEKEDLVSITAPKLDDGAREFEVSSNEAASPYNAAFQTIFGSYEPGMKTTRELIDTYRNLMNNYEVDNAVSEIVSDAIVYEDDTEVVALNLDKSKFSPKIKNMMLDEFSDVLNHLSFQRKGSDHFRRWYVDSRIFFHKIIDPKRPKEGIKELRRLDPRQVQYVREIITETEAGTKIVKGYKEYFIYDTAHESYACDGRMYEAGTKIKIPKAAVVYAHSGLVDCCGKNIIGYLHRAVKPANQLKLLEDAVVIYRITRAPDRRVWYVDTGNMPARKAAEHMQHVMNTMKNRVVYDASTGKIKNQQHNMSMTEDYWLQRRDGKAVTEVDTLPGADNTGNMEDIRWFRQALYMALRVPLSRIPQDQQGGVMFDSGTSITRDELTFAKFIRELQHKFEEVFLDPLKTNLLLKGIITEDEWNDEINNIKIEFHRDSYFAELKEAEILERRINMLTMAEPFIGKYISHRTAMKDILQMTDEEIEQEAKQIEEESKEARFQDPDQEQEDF

Binder	stoichiometry N [1]	stoichiometry N (copies per head) [2]
B1	6	–
B2	–	6

— PMC3746776 (Journal of molecular biology, 2013)
